Experiments:
transferrin [1] = target: T1, transferrin (UniProt P02787 20-698); experiment: not stated; direct binding of TC6 (Fig. S9C to E); method not given
T1 construct: transferrin (serotransferrin), the iron transporter of serum; probably the mature plasma protein; also called Tf; WT-Tf

transferrin [2] = target: T1, transferrin; experiment: SPR; BIAcore 2000; transferrin coupled at a CM5 sensor chip, CD14 flowed over; details in the Supplementary Materials (not shown); conditions: both partners purified

T1 sequence (P02787 20-698): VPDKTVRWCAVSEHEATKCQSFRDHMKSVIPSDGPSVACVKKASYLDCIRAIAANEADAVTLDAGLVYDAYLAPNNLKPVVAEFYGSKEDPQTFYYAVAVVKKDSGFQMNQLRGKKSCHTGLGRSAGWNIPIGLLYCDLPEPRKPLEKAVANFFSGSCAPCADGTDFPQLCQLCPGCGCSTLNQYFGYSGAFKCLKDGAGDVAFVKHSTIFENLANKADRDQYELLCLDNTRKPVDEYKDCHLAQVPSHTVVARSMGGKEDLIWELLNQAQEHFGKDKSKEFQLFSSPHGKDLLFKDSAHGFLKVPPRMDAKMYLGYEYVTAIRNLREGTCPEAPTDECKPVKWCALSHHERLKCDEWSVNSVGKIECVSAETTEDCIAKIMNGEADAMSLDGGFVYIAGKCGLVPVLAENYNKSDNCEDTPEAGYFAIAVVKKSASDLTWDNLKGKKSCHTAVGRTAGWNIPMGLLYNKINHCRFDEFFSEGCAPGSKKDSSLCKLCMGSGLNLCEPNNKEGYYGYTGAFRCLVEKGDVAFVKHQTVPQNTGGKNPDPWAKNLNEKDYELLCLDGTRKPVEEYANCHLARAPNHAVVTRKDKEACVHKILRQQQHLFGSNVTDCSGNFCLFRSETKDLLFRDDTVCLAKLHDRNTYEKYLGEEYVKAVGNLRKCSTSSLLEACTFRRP

| Kd (transferrin [1]) [nM] | Kd (transferrin [2]) [nM] | koff (transferrin [2]) [s⁻¹] | kon (transferrin [2]) [M⁻¹ s⁻¹] | Binder |
| --- | --- | --- | --- | --- |
| 13 | – | – | – | TTPEPC (designed peptide TC6; also called interference peptide TC6) [peptide TC6] |
| – | 14 | 0.00033 | 24000 | cluster of differentiation 14 (CD14) (receptor, UniProt P08571 20-345, looked up, CD14, TLR coreceptor; isolated protein used in SPR and native gel; Probably a soluble recombinant CD14; also called WT-CD14; wild-type CD14) TTPEPCELDDEDFRCVCNFSEPQPDWSEAFQCVSAVEVEIHAGGLNLEPFLKRVDADADPRQYADTVKALRVRRLTVGAAQVPAQLLVGALRVLAYSRLKELTLEDLKITGTMPPLPLEATGLALSSLRLRNVSWATGRSWLAELQQWLKPGLKVLSIAQAHSPAFSCEQVRAFPALTSLDLSDNPGLGERGLMAALCPHKFPAIQNLALRNTGMETPTGVCAALAAAGVQPHSLDLSHNSLRATVNPSAPRCMWSSALNSLNLSFAGLEQVPKGLPAKLRVLDLSCNRLNRAPQPDELPEVDNLTLDGNPFLVPGTALPHEGSMN |

From article PMC10809841, “Transferrin Is Up-Regulated by Microbes and Acts as a Negative Regulator of Immunity to Induce Intestinal Immunotolerance” (Research, 2024)
